The values that follow come from a protein production outcome set (Wang et al. 2014).

A short description of the data set: label from the status in PepcDB records.
Take “MRTPAWLGSGMPLLFVLLWSTGFLGAKFGLPYAEPFTFLAIRLLLAAALLAAFALLSGAPWPGSARLAGHVAVAGLLVHGLYLGGVFLAIEHGMSAGLTSLLVGLQPLATAALAGIWLGEQVSRRQWLGLALGLAGVALVVLGRIHGGADGLAWAAVLVALAAITCGTLYQKRFCGGMDLRTGGVVQYLASGALLGLAALLFESREVQWSTPFVLTLGWLVLGLSFGAVGLLYTLIRHGAASKVASLFYLVPPVTALASWLLFDERLAPAAIGGMLLVMLGVALVNWPGRRA”: the protein production entry is given as “failed”. To “MRTPRRAPEPVQVVKQRRDATLRALVDGVPYIQFLGIEFERRGDELTGILPFDQKLIGNPLLPAIHGGVTAAFLEVTAIITLSWTYLWEDMESGAIDAKGLASGGMPRLPKTIDISTDYLRSGLPRDAYARARIVRSGRRYASVHVEAWQDNRDRLFAQATGHFLMPDRRDS” belongs “failed”; to “MRTVPSLSMSKSRCNMLASTLDRPSPEDSQTLAEVERTITSGVGALCFSRGLERRYQTETRLQRREFLTAMGIGGSLIYNLFLITDWLILRDVFVYVAIGRLCLITPMFIIMLILARRLASRRAMETTAAVATVLCSLMPMVVMTYSESPYQIFYQLGMLLIMVYCTMIQQLPLRHAAAALSCMLIIQLVTTYIADFADFVIWQANALLFVSTVMLLLMASYFLERASRLSYLFALRGRLLQVQLLEFARTDALTRLFNRRYQDEVLTSVWERARKKQANVAIILLDIDHFKSYNDNYGHPQGDVCLKLLCKAIQQSANDGGAVAFRFGGEEVLVLMNADADQATKMAETLKATVAALKLPHPALGEDAHVTISLGVASGIAPLITYDTLISAADNALYAAKHAGRNCVFCQP”, “failed”. To “MRVAVAGGTGLVGKYVVAELRAAGHTPVVLARSHGVDLTTGAGLAGKLSGSDAVIDVANIVTTRRKTAVDFFSRTTGHLIAAARAGGVAHLVTLSIVGSDEVDFGYYFGKRAQEELVRDGAVPWTVVRATQFFEFPEPLLNGVSPVVVVPRMLTRPVAAQDVAQTLVEHAVEGPAGMAPEIAGPDQLDMVDMARRIARARGSRRLVVPVTLPGKVGKAMTTGGLLPRGEYLRGRRTFDAHLASLRAA” belongs “failed”. To “MRVDGLNGRPHSHWVINKVIGDSTMTFSNAQRLRPVRRHAIFQACALGFALALASGSAFAAAALTQPAQDPAKVAPASLAVSKIDFKRGEDGTGRLILQFNGQGASPDLRTQGDNVLVDISNARLPAELQRPLNVTDFATPVQRVEVKPSGSGSQLVLSTKGAFDSLAYQTGNEYVVEITPRKGQPAVGGVSPAAVTQAAAQIAARGYSGRPVTFNFQDVPVRTVLQLIAEESNLNIVASDTVQGNVTLRLMNVPWDQALDIVLRAKGLDKRRDGGVVWVAPQPELAKFEQDKEDARIAIENREDLITDYVQINYHNAAVIFKALTEAKGIGGGGGSGGGQGGQGGAGQQDNGFLSPRGRLVADERTNTLMISDIPKKVAQMRELISHIDRPVDQVLIESRIVIATDTFARDLGARFGIIGATGRGILSGSLDSNTNYLNTSAKRASEIANGGTSTTLPAHLFPSGLNVNLGAGGGFTTNTPGGLAYTLLGSNFNLDIELSAMQQEGRGEVVSNPRIVTANQREGVIKQGREIGYVTISGSGAGGGSQANVQFKEVLLELKVTPTITNDNRVFLNMNVKKDEVARLIDLPLYGTVPEINRREINTAVLVGDGETVVIGGVYEFTDRESVSKVPFLGDIPFLGNLFKKRGRSKEKAELLVFVTPKVLRVASATR” belongs “failed”. As for “MRVDRSSSSSTVSLLEGKIYVAGGFDPKTHTWSSVTSPSAVIRNESVAEHKSLGLGGKFYLFGYDSDKSAVVYNPKEDNVLFYRFHGLFHWYDYKGNFWKQVNGLGPVACTEKVAILAALDTFDNAR”, the protein production entry is listed as “failed”.

“MRVGVLGAKGKVGATMVRAVAAADDLTLSAELDAGDPLSLLTDGNTEVVIDFTHPDVVMGNLEFLIDNGIHAVVGTTGFTAERFQQVESWLVAKPNTSVLIAPNFAIGAVLSMHFAKQAARFFDSAEVIELHHPHKADAPSGTAARTAKLIAEARKGLPPNPDATSTSLPGARGADVDGIPVHAVRLAGLVAHQEVLFGTEGETLTIRHDSLDRTSFVPGVLLAVRRIAERPGLTVGLEPLLDLH”: the protein production result was “not failed”. For “MRVISRNLTAWSAGLIVVAIFLGAWLSHPLHRISGFAVTPAPVGTESLPPKASYSSRFASSDLNDFVHSSAVTALPGGDLMSVWFAGSREGAGDVEIRTSRFDAQAEEWGGEQVLATRESTQTGTGKYIRKLGNPVIALAPDNRLWLFYVSVSVGGWAGSSVNAMVSSDMGASWSAPRQLVTSPFLNISTLVRGAPVFHADGSIGLPVYHEFLGKFAEYLYLSADGEVIDKFRISRGKNSLQPTVVPLDGQRAVALLRYAGETFHRVLASRTEDGGQTWSEPYPLAPSNPNSSLAAVGVPGKGLLVALNDLREGRFKLSLYSTDEQMKVWRPLPDLDKSPDPLGTPFSLEVYKEVIGQGFRASSGALRQPMEAEFLSNLDQRVCAPQGCDFEYEYPYFIRSPDGLYHLVYSWNNTFIKHVSFNEAWLAEQLL”, the protein production result is “failed”. “MRVIVAYDGSPGADKAVGFALGLKDSIDKYFILYVSRDITDLSGQLVYISDETVEQQERLADEIVNKAKSLMTRSGVDYEVMKVDSNGEDISKVIVKIAQEKGIDVIFTGTRKLRGLDKFFLGSISSGILALSSCPVIVVP”: the protein production result is given as “not failed”.

Take “MRVLHETTQELANWQYYFAIAVFLITYAIIISEKINRAVIALLGAALMVIMGVVDLHNAFTKHIEWGTITLLIGMMILVNITSKSGVFQYVAIKAAKGAQGNPIKILISLSLLTALGSAFLDNVTTVLLVVPVTLSITRILQVNPVPYLLSEIIFSNIGGTATLIGDPPNIMIGSANKHLDFNAFLLNLAPIVIIIIAVTAAILYFMYRKQLIADPVQVKKLMSLDEKQYIKDPVLMKKSLTVLGLTIVGFMTHSIFHVDAAIIALTGATVLMLIGVKEHEIEEVFASVEWVTIFFFAGLFVLVGGLIDIGLIKMLAQKVIGITGGDISYASILILWVSGIASATIDNIPFVATMIPLINDMAVGLGLSPADAQIDVLWWALALGACLGGNGTLIGASANVIVAGIASREGHKFSYMDFLKVGFPIMIVSLIISHIYIYVRYLM”: the protein production entry is on record as “failed”.

Consider “MRVLKFGGSSLADADRFLRAADIIANNAQQEEVAVVLSAPGKTTNKLVAVIEGALRNGEAELQINELEESFKTLFADIQAVLPNLEGAAFDNQVKTSLSQLRQFVHGINLLGMCPNNVNAR”, for which the protein production entry is listed as “failed”. With “MRVLVVGANGKVARYLLSELKNKGHEPVAMVRNEEQGPELRERGASDIVVANLEEDFSHAFASIDAVVFAAGSGPHTGADKTILIDLWGAIKTIQEAEKRGIKRFIMVSSVGTVDPDQGPMNMRHYLVAKRLADDELKRSSLDYTIVRPGPLSNEESTGKVTVSPHFSEITRSITRHDVAKVIAELVDQQHTIGKTFEVLNGDTPIAKVVEQL”, the protein production result is “not failed”. The same measure for “MRVMRICLVGLGAVGQGFLRAVQMKGEYLRERYGLDIRFTGVADSSGALHDPDGLDIRGVLEHKKRAGLGSHPSGYEGMTGDELLDEAEYDCLVEATPTNIEDGEPGRSLVLKAMGDGKHVVTSNKGHLALFYSELMEAASEAGVEFMFEASVGGAMPIINLARETLASCTIESVIGILNGTTNFILSRMASEGSSYRQALIEAQELGIAETNPAQDVEGTDAACKAVIIANSILGRPCTLRDVRVEGITGITQGAIELAAQEGYLIKLIAEISGDRLEVGPRLVRMGSPYAVDGTLNMATLRTDLAGEVTAVGRGAGSLETASAMLTDTITIWRKSGGR”: “failed”; for “MRVTYWRDESLQKNDRSHIKAYALMSGILAQLVGSILVGIFGGQWIDNKVGTFPLFLIIGLLLGLGTGVYAMIRLIRHYYSGEQ”: “failed”.

For the sequence “MRVVVMGCGRVGASVADGLSRIGHEVAIIDRDSAAFNRLSPQFAGERVLGQGFDRDVLLRAGIQGADAFAAVSSGDNSNIISARLARETFGVPRVVARIYDAKRAEVYERLGIPTIATVPWTTDRLLNALMQDTETAKWRDPTGTVAVAEVVLHEDWVGHRATDLEQATGARIAFLIRFGTGVLPEPKTVLQAGDKVYIAAISGRAAEAAAIAALPPSEDFESGARR”, the protein production entry is given as “failed”. The same measure for “MRWDVVAWAVLALLLIAAETLAPGAFLLWMGIAAAAVCVLVLAVPGTSVLLQIVAFVVLSFVAIQVYRTWFRGKGRQSDRPLLNRRAEQLIGRSVLLDQAIVDGRGRAKVDDAFWVVSGPDLPAGALVRIVAVDGMTLQVQPNT”: “failed”.
